Data taken from patent US20200199241A1 (Chugai, published 2020).
Residue numbers refer to the chain shown, from its start.

B1: IgG1-F147 (antibody)
heavy: QVQLQESGPGLVKPSETLSLTCAVSGHSISHDHAWSWVRQPPGEGLEWIGFISYSGITNYNPSLQGRVTISRDNSKNTLYLQMNSLRAEDTAVYYCARSLARTTAMDYWGEGTLVTVSSASTKGPSVFPLAPSSKSTSGGTAALGCLVKDYFPEPVTVSWNSGALTSGVHTFPAVLQSSGLYSLSSVVTVPSSSLGTQTYICNVNHKPSNTKVDKKVEPKSCDKTHTCPPCPAPELLGGPSVFLFPPKPKDTLYISRTPEVTCVVVDVSHEDPEVKFNWYVDGVEVHNAKTKPREEQYNSTYRVVSVLTILHQDWLNGKEYKCKVSNKALPAPIEKTISKAKGQPREPQVYTLPPSRDELTKNQVSLTCLVKGFYPSDIAVEWESNGQPENNYKTTPPVLDSDGSFFLYSKLTVDKSRWQQGNVFSCSVMHEALHYHYTQKSLSLSP
light: not shown
notes: EU numbering; copies: 2 + 2
B2: IgG1-F149 (antibody)
heavy: B1 heavy with I310L
light: not shown
notes: EU numbering; copies: 2 + 2
B3: IgG1-F152 (antibody)
heavy: B1 heavy with I310Q
light: not shown
notes: EU numbering; copies: 2 + 2
B4: IgG1-F154 (antibody)
heavy: B1 heavy with I310T
light: not shown
notes: EU numbering; copies: 2 + 2
B5: IgG1-F157 (antibody)
heavy: B1 heavy with Y254M, P259A, I310P, M430L
light: not shown
notes: copies: 2 + 2
B6: IgG1-F158 (antibody)
heavy: B1 heavy with Y254M, P259T, I310P, M430L
light: not shown
notes: EU numbering; copies: 2 + 2
B7: IgG1-F159 (antibody)
heavy: B1 heavy with Y254M, P259V, I310P, M430L
light: not shown
notes: EU numbering; copies: 2 + 2
B8: IgG1-F160 (antibody)
heavy: B1 heavy with Y254W, I310V, M430I
light: not shown
notes: EU numbering; copies: 2 + 2
B9: IgG1-F162 (antibody)
heavy: B1 heavy with Y254W, I310V, M430Y
light: not shown
notes: EU numbering; copies: 2 + 2
B10: IgG1-F163 (antibody)
heavy: B1 heavy with Y254W, I310V, M430F
light: not shown
notes: EU numbering; copies: 2 + 2
B11: IgG1-F164 (antibody)
heavy: B1 heavy with P240A, Y254W, I310V
light: not shown
notes: EU numbering; copies: 2 + 2
B12: IgG1-F165 (antibody)
heavy: B1 heavy with Y254W, D267A, I310V
light: not shown
notes: EU numbering; copies: 2 + 2
B13: IgG1-F166 (antibody)
heavy: B1 heavy with Y254W, T309Q, I310V
light: not shown
notes: EU numbering; copies: 2 + 2
B14: IgG1-F167 (antibody)
heavy: B1 heavy with Y254W, V305A, I310V
light: not shown
notes: EU numbering; copies: 2 + 2
B15: IgG1-F168 (antibody)
heavy: B1 heavy with Y254W, I310V, D378A
light: not shown
notes: EU numbering; copies: 2 + 2
B16: IgG1-F169 (antibody)
heavy: B1 heavy with Y254W, V307A, I310V
light: not shown
notes: EU numbering; copies: 2 + 2
B17: IgG1-F170 (antibody)
heavy: B1 heavy with Y254W, I310V, Q313A
light: not shown
notes: EU numbering; copies: 2 + 2
B18: IgG1-F171 (antibody)
heavy: B1 heavy with Y254W, I310V, D314A
light: not shown
notes: EU numbering; copies: 2 + 2
B19: IgG1-F172 (antibody)
heavy: B1 heavy with Y254W, I310V, K319A
light: not shown
notes: EU numbering; copies: 2 + 2
B20: IgG1-F173 (antibody)
heavy: B1 heavy with Y254W, I310V, E382A
light: not shown
notes: EU numbering; copies: 2 + 2
B21: IgG1-F174 (antibody)
heavy: B1 heavy with Y254W, I310V, E384A
light: not shown
notes: EU numbering; copies: 2 + 2
B22: IgG1-F175 (antibody)
heavy: B1 heavy with Y254W, I310V, S426A
light: not shown
notes: EU numbering; copies: 2 + 2
B23: IgG1-F176 (antibody)
heavy: B1 heavy with S241K, Y254W, I310V
light: not shown
notes: EU numbering; copies: 2 + 2
B24: IgG1-F177 (antibody)
heavy: B1 heavy with Y254W, S300G, I310V
light: not shown
notes: EU numbering; copies: 2 + 2
B25: IgG1-F178 (antibody)
heavy: B1 heavy with Y254W, D272F, I310V
light: not shown
notes: EU numbering; copies: 2 + 2
B26: IgG1-F179 (antibody)
heavy: B1 heavy with Y254W, I310V, N327G
light: not shown
notes: EU numbering; copies: 2 + 2
B27: IgG1-F182 (antibody)
heavy: B1 heavy with Y254M, P259A, I310V, M430L, Y436W
light: not shown
notes: EU numbering; copies: 2 + 2
B28: IgG1-F183 (antibody)
heavy: B1 heavy with Y254M, P259T, I310V, M430L, Y436W
light: not shown
notes: EU numbering; copies: 2 + 2
B29: IgG1-F184 (antibody)
heavy: B1 heavy with Y254M, P259V, I310V, M430L, Y436W
light: not shown
notes: EU numbering; copies: 2 + 2
B30: IgG1-F189 (antibody)
heavy: B1 heavy with T309A, I310V
light: not shown
notes: EU numbering; copies: 2 + 2
B31: IgG1-F190 (antibody)
heavy: B1 heavy with T309Q, I310V
light: not shown
notes: EU numbering; copies: 2 + 2
B32: IgG1-F191 (antibody)
heavy: B1 heavy with Y254M, P259L, T309A, I310V, M430L
light: not shown
notes: EU numbering; copies: 2 + 2
B33: IgG1-F192 (antibody)
heavy: B1 heavy with Y254M, P259A, T309A, I310V, M430L
light: not shown
notes: EU numbering; copies: 2 + 2
B34: IgG1-F193 (antibody)
heavy: B1 heavy with Y254M, P259T, T309A, I310V, M430L
light: not shown
notes: EU numbering; copies: 2 + 2
B35: IgG1-F194 (antibody)
heavy: B1 heavy with Y254M, P259V, T309A, I310V, M430L
light: not shown
notes: EU numbering; copies: 2 + 2
B36: IgG1-F195 (antibody)
heavy: B1 heavy with Y254M, P259L, T309Q, I310V, M430L
light: not shown
notes: EU numbering; copies: 2 + 2
B37: IgG1-F196 (antibody)
heavy: B1 heavy with Y254M, P259A, T309Q, I310V, M430L
light: not shown
notes: EU numbering; copies: 2 + 2
B38: IgG1-F198 (antibody)
heavy: B1 heavy with Y254M, P259V, T309Q, I310V, M430L
light: not shown
notes: EU numbering; copies: 2 + 2
B39: IgG1-F201 (antibody)
heavy: B1 heavy with T309D, I310V
light: not shown
notes: EU numbering; copies: 2 + 2
B40: IgG1-F203 (antibody)
heavy: B1 heavy with T309F, I310V
light: not shown
notes: EU numbering; copies: 2 + 2
B41: IgG1-F204 (antibody)
heavy: B1 heavy with T309G, I310V
light: not shown
notes: EU numbering; copies: 2 + 2
B42: IgG1-F205 (antibody)
heavy: B1 heavy with T309H, I310V
light: not shown
notes: EU numbering; copies: 2 + 2

Molecular target: T1, human FcRn (soluble human FcRn complexed with β2-microglobulin) (human, UniProt P61769 21-119, limits assumed)
T1 construct: also called hFcRn
T1 sequence (chain, as listed by the source limits assumed, chain 1 of 2): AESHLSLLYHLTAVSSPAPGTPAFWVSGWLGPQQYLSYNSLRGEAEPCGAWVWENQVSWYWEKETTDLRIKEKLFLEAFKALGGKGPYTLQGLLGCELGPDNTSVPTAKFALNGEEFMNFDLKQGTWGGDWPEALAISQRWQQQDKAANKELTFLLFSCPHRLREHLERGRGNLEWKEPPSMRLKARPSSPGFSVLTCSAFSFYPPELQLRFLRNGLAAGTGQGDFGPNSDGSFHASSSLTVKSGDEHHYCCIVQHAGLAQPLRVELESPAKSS
T1 sequence (P61769 21-119 limits assumed, chain 2 of 2): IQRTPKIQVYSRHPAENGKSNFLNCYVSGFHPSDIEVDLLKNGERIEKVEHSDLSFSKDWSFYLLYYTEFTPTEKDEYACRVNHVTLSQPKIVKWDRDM
Assay: SPR, pH 7.0;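 further: antibodies captured on a Protein L sensor chip with human FcRn injected as analyte, KD calculated from fitted association and dissociation rate constants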

Q: How did the Kd turn out when B1 was run?
A: 240 nM

Q: With B2 as the binder, how does the Kd read?
A: 190 nM

Q: With B3 as the binder, how does the Kd read?
A: 270 nM

Q: Which Kd does the source give for B4 here?
A: 180 nM

Q: Which Kd does the source give for B5 here?
A: 150 nM

Q: How did the Kd turn out when B6 was run?
A: 59 nM

Q: How did the Kd turn out when B7 was run?
A: 44 nM

Q: For B8, which Kd is on record?
A: 850 nM

Q: With B9 as the binder, how does the Kd read?
A: 160 nM

Q: How did the Kd turn out when B10 was run?
A: 420 nM

Q: Which Kd does the source give for B11 here?
A: 370 nM

Q: With B12 as the binder, how does the Kd read?
A: 290 nM

Q: For B13, which Kd is on record?
A: 150 nM

Q: For B14, which Kd is on record?
A: 290 nM

Q: B15 was tested. Which Kd did it give?
A: 320 nM

Q: Which Kd does the source give for B16 here?
A: 290 nM

Q: Which Kd does the source give for B17 here?
A: 170 nM

Q: For B18, which Kd is on record?
A: 190 nM

Q: B19 was tested. Which Kd did it give?
A: 220 nM

Q: For B20, which Kd is on record?
A: 770 nM

Q: Which Kd does the source give for B21 here?
A: 340 nM

Q: Which Kd does the source give for B22 here?
A: 270 nM

Q: How did the Kd turn out when B23 was run?
A: 290 nM

Q: B24 was tested. Which Kd did it give?
A: 280 nM

Q: How did the Kd turn out when B25 was run?
A: 270 nM

Q: With B26 as the binder, how does the Kd read?
A: 310 nM

Q: B27 was tested. Which Kd did it give?
A: 66 nM

Q: Which Kd does the source give for B28 here?
A: 220 nM

Q: For B29, which Kd is on record?
A: 270 nM

Q: For B30, which Kd is on record?
A: 190 nM

Q: Which Kd does the source give for B31 here?
A: 110 nM

Q: B32 was tested. Which Kd did it give?
A: 160 nM

Q: With B33 as the binder, how does the Kd read?
A: 110 nM

Q: With B34 as the binder, how does the Kd read?
A: 85 nM

Q: How did the Kd turn out when B35 was run?
A: 120 nM

Q: How did the Kd turn out when B36 was run?
A: 56 nM

Q: With B37 as the binder, how does the Kd read?
A: 35 nM

Q: Which Kd does the source give for B38 here?
A: 48 nM

Q: For B39, which Kd is on record?
A: 210 nM

Q: Which Kd does the source give for B40 here?
A: 240 nM

Q: With B41 as the binder, how does the Kd read?
A: 210 nM

Q: B42 was tested. Which Kd did it give?
A: 200 nM
